Test results taken from the DeepSol protein solubility set.

Assay: soluble on expression in E. coli; label from the status in PepcDB or PDB records
With “MGSDKIHHHHHHMESVYLFSSGTLKRKANTICLETESGRKYIPVENVMDIKVFGEVDLNKRFLEFLSQKRIPIHFFNREGYYVGTFYPREYLNSGFLILKQAEHYINQEKRMLIAREIVSRSFQNMVDFLKKRKVRADSLTRYKKKAEEASNVSELMGIEGNAREEYYSMIDSLVSDERFRIEKRTRRPPKNFANTLISFGNSLLYTTVLSLIYQTHLDPRIGYLHETNFRRFSLNLDIAELFKPAVVDRLFLNLVNTRQINEKHFDEISEGLMLNDEGKSLFVKNYEQALRETVFHKKLNRYVSMRSLIKMELHKLEKHLIGEQVFGSEE” the “soluble on expression in E. coli” value was “not soluble”.
In the case of “HNGDLYFSNVMLQDMQTDYSCNARFHFTHTIQQKNPFTLKVLTTRGVAERTPSFMYPQGTASSQMVLRGMDLLLECIASGVPTPDIAWYKKGGDLPSDKAKFENFNKALRITNVSEEDSGEYFCLASNKMGSIRHTISVRVKAAPYWLDEPKNLILAPGEDGRLVCRANGNPKPTVQWMVNGEPLQSAPPNPNREVAGDTIIFRDTQISSRAVYQCNTSNEHGYLLANAFVSVLDVPPRMLSPRNQLIRVILYNRTRLDCPFFGSPIPTLRWFKNGQGSNLDGGNYHVYENGSLEIKMIRKEDQGIYTCVATNILGKAENQVRLEVKDPTRIYRMPEDQVARRGTTVQLECRVKHDPSLKLTVSWLKDDEPLYIGNRMKKEDDSLTIFGVAERDQGSYTCVASTELDQDLAKAYLTVLGRPDRPRDLELTDLAERSVRLTWIPGDANNSPITDYVVQFEEDQFQPGVWHDHSKYPGSVNSAVLRLSPYVNYQFRVIAINEVGSSHPSLPSERYRTSGAPPESNPGDVKGEGTRKNNMEITWTPMNATSAFGPNLRYIVKWRRRETREAWNNVTVWGSRYVVGQTPVYVPYEIRVQAENDFGKGPEPESVIGYSGEDYPRAAPTEVKVRVMNSTAISLQWNRVYSDTVQGQLREYRAYYWRESSLLKNLWVSQKRQQASFPGDRLRGVVSRLFPYSNYKLEMVVVNGRGDGPRSETKEFTTPEGVPSAPRRFRVRQPNLETINLEWDHPEHPNGIMIGYTLKYVAFNGTKVGKQIVENFSPNQTKFTVQRTDPVSRYRFTLSARTQVGSGEAVTEESPAPPNEGRCMAAAPGVKGPS”, the “soluble on expression in E. coli” value is reported as “soluble”.
In the case of “VERAQDGLYTIDERGVIDFCNDSFAATLGYEPGKLCGTHILEVLAPGEFPKGQAAVEELLEAPDQESTTVDLTFRRKDGAERELSFNHTLTHDEAGNYNGVIGVARDVT”, the “soluble on expression in E. coli” value is reported as “not soluble”.
With “MLLQNILPFAHCLLRKALPEGGNALDGTAGNGHDTLFLAQTAGIRGKVWAFDIQPQALNNTRCRLQEAGYSNVRLILDGHENLKQYIPKPLDAAIFNFGWLPGGDKSLTTRTETSIAALSATLSLLKENGMLIAVLYPGHENGKQEAEAIEQWAKNLPQEQFAVLRYGFTNRKNSPPYLLVFEKLRQKLEHHHHHH” the “soluble on expression in E. coli” value was “soluble”.
In the case of “MRSAVSKVEESIEVAVPVSTAYNQWTQFEEFPQFMGGVERIEQQTATLTHWVTKVGGVTREFDAEIVEQIPDEQVSWTTVGGDVHQAGVVTFHRLDDRRTKVMLQMDHDSKGVVDAVGDKLGVVKHQVSEDLKRFKSFIENRGLEHHHHHH”, the “soluble on expression in E. coli” value is reported as “not soluble”.
In the case of “MKYVFIENHRAEFSIKAMCRVLRVARSGWYVWLRRRHQMSLRQQFRLTCDAAVHKAFFEAKQRYGAPRLADELPEFNIKTIAASLRRQGLRAKASRKFSPVSYRAHGLPVLENLLEQDFSASGPKPEVGG”, the “soluble on expression in E. coli” value is reported as “not soluble”.
For “TRFVPGGPVERMLSQMQSQGDGAASMTSAGGNTALSDEQIAELNAFYGLDKPVMEAYVDWLSRLVTLDLGESTRYYEPVSDMIAERLP”, the “soluble on expression in E. coli” value was “not soluble”.
With “GPGSMEGSGSYRLKRGRDELSTPPASGNFPASDQRGTQNLLRCPWCPNGHLMRPAAKSPTNNSKEEGTHLCTNRSSCPCGAVIDQDRTMSFSCIDGSDLIRNFYNALDDHLETCQIVSQTPSQRDWAPWSIVAERSILFADPSNRKQRHSVDCSPPSLSPDPKGPVFYFLHCDNCGEKEFVC” the “soluble on expression in E. coli” value was “not soluble”.
In the case of “MSEEGPQVKIREASKDNVDFILSNVDLAMANSLRRVMIAEIPTLAIDSVEVETNTTVLADEFIAHRLGLIPLQSMDIEQLEYSRDCFCEDHCDKCSVVLTLQAFGESESTTNVYSKDLVIVSNLMGRNIGHPIIQDKEGNGVLICKLRKGQELKLTCVAKKGIAKEHAKWGPAAAIEFEYDPWNKLKHTDYWYEQDSAKEWPQSKNCEYEDPPNEGDPFDYKAQADTFYMNVESVGSIPVDQVVVRGIDTLQKKVASILLALTQMDQDKVNFASGDNNTASNMLGSNEDVMMTGAEQDPYSNASQMGNTGSGGYDNAW”, the “soluble on expression in E. coli” value is reported as “soluble”.
In the case of “MTKPFAPASARNRDPILSVLQRYFADRQHVLEIGAGTGQHAVHFAAAMPWLRWQASDHPDHLPGMRQWLDEAALPNTPPPVALQAVLTPAPGLAPAPPLPPVQAGTPAGYDAIYSANTLHIMGWPQVQALFAGLPAVMAPQAVLVIYGPFNRDGEFTSDSNRDFDAMLRARDAASGIRDAAEVDALAAQVGLQLVDDVDMPANNRCRVWQRALEHHHHHH”, the “soluble on expression in E. coli” value is reported as “soluble”.
In the case of “MGSDKIHHHHHHMYAETDFIALSALQHYVFCPRQCALIHLEQVWSENLYTAEGREMHERADSAVTSYREGVKVTRSVPLRSAVLGVSGVADVVEWHRREGGFEPFPVEYKRGKPKKHDADKVQLCAQAMCLEEMRSCAIPSGALFYGQTMRRLDVVFDEVLRSKTVAAAAGVHGLFSLGVTPHPEFGPKCKLCSLVDECLPEVLERHGSAKRYVQKLYRELSGEEI”, the “soluble on expression in E. coli” value is reported as “not soluble”.
In the case of “DDGEPYALCVVATDITDQKQRERELARLTDEYAAVFENTNDAIALVDIEEPADDPTFRYVRTNEAYERQTGFDTESLTGQTPVEAAGPDIGRRIADHYKQCVSAGEPITFEERDLHPTGVWETQVTPIAADG”, the “soluble on expression in E. coli” value is reported as “not soluble”.
With “MPSVISTDVLIVGAGVAGLWLNARLRRQGFSTVLVESASLGGGQSLKSQGIIHGGAKYALHGALSGASEAIADMPRRWREALDGKGELDLSGVRLLSEAHYLWSPGTIAGNLTSFFASKAVRGRVDQVKGEQLPPALQNPKFKGKVYRLAELVVDVPSLIKRLAELAEDSLLAGQKIEPLYEADELIGLRVDGRDIHAQRIVLSAGGGTADLLNALGVSQPQMQRRPLHMVLVKGPTLKPLFAHCLGGGPKPRITVTTHPAADGQCVWYLGGDLAEADGVAREPDAQIAVARKELEALLPWVDLSQAQWATLRVDRAEPAQSGLVRPDNAFLDSQRRLMVGWPTKLALAPDFADRVLSHLSKDDIHPTPQAPLVDVPRPPLAIPVWDELLPLEHHHHHH” the “soluble on expression in E. coli” value was “not soluble”.
For “MKSITQLENKKVLVLGLAKSGEAAARLLAKLGAIVTVNDGKAFEENPSAQSLLEEGIKVVCGGHPLELLDENFELMVKNPGIRYDNPMVARALEKEIPVWTEVELAYLVSEAPIIGITGSNGKTTTTTMIADVLNHGGKSGVLSGNIGFPASEVAQSVTNQDTLVMELSSFQLMGIESFHPHIAVITNLMPTHIDYHGSFEEYVAAKWNIQNEMTSDDFIILNFNQDLAKELATQTNAQVVPFSTVEKVDGAYLENGGLYFKGELLMHADELGVPGSHNVENALATIAVAKLSGVSNQAIKETLSSFGGVKHRLQFVDTIDDVKFYNDSKSTNILATQKALSGFDNSKVILIAGGLDRGNEFDELIPDITGLKKMVILGESAPRVKRAADKAGVTYLDAKDVADATRIAFEQASAGDVVLLSPANASWDMYKNFEVRGDEFITTVERLKG”, the “soluble on expression in E. coli” value was “not soluble”.
For “MGSDKIHHHHHHQVSGDVVKIGILNDQSGLYADLAGAGSVQAARMAIEEFGGQVLGKKIELVWADHQNKADIGAGIARAWFDREGVDAIADFSNSSVGFAVQGLANERKKITLVAAGSSDFTGKACSPFSTQWVYNSYSNGYGLARLLASRGMDSVFLLTVDYTFGHAFANDVRKAVTENGGKVLGEVRFPLNSFDLSSYLLQAQASKAKLIVTAAAGSDMTSTVKQANEFGITPGQALAAPAVFITDVNSMGLQAAQGLQFVTAFYWDRTPDSRAWAEKFFARQKAMPSMTQAGVYSAVRHYLKAVEAAKTDDAVAVAAKMRELPVRDMNIENGRVREDGQVMHDMYLVEVKKPDESRRAWDYYKVLTTVPADQAFQALADSACPLVGKQ”, the “soluble on expression in E. coli” value was “not soluble”.
In the case of “FMQDFEDIQKDIEQLDIKCAHEQMNIQKQYDEKKKPLFEKRDEIIQKIPGFWANTLRKHPALSDIVPEDIDILNHLVKLDLKDNMDNNGSYKITFIFGEKAKEFMEPLTLVKHVTFDNNQEKVVECTRIKWKEGKNPIAAVTHNRSDLDNEIPKWSIFEWFTTDELQDKPDVGELIRREIWHNPLSYYLGLEE”, the “soluble on expression in E. coli” value is reported as “soluble”.
With “MTNDLIQLIDSLMVNIPAGEVVLRDDRIKKEWLVQIQPFLLAKYAVTMELYDAITNSTLNNFDKNHKPVVNISWNDAIAFCNVLSKKAGLKEYYSISDGGQIVKCNLDSNGYRLPSEAEWQYACKASTTGYTYGKLHDIAWYNENSNGEIHDVGQKEPNAWGLYDMLGNVWEWCYDLYDETVYGSYRIFRGGSWAETARGCGATCRRRSHPTFHIDDLGFRLARSILEHHHHHH” the “soluble on expression in E. coli” value was “soluble”.
For “MNENWNWSLVDKVVYINLKERTDRNEHIKKELEKVCFPPEKIIRFEAIRAGSGFIGCAKSHLAVLKMAQENNWRNILILEDDMVFEDDDETIIRTNNFLSKLNNIHWDAAFLSASYYIVNAIDDNFFKVNFAYLANSYLVNNHYYEKLINNYTESVQRLTNGESSSEYGLDSNWLKIMKIDNWYGIYPVIGYQRTDISDIEYKEIDRTHQFTRTFDKMKAYGSK”, the “soluble on expression in E. coli” value was “soluble”.
In the case of “MGSDKIHHHHHHMLKSIKSSGVTAVLDHDGFNKRIRVVRYDGAIEKALPDIVAAAKEENAEKIIVYAKQHDEPILAKQLFAPEGYLKGYYLGHSACVMVRYLSESRRQTDSYTEEQEIIEAIYRTAPRLRNDSTPVFTMRKAETNDMYQLSMLYKKVFRTYPTPVFDPAYIEKTMNANTVYYIMLDHDRLISAASAEINPELGHAEITDCAVLPEYRGHSLTSFLIEALEKEMAGEDIVHVFSLARASSFGMNAVLYHSGYQYGGRLINNCFIAEGLENMNIWCKQL”, the “soluble on expression in E. coli” value is reported as “not soluble”.
With “MPLLGLLPRRAWASLLSQLLRPPCASCTGAVRCQSQVAEAVLTSQLKAHQEKPNFIIKTPKGTRDLSPQHMVVREKILDLVISCFKRHGAKGMDTPAFELKETLTEKYGEDSGLMYDLKDQGGELLSLRYDLTVPFARYLAMNKVKKMKRYHVGKVWRRESPTIVQGRYREFCQCDFDIAGQFDPMIPDAECLKIMCEILSGLQLGDFLIKVNDRRIVDGMFAVCGVPESKFRAICSSIDKLDKMAWKDVRHEMVVKKGLAPEVADRIGDYVQCHGGVSLVEQMFQDPRLSQNKQALEGLGDLKLLFEYLTLFGIADKISFDLSLARGLDYYTGVIYEAVLLQTPTQAGEEPLNVGSVAAGGRYDGLVGMFDPKGHKVPCVGLSIGVERIFYIVEQRMKTKGEKVRTTETQVFVATPQKNFLQERLKLIAELWDSGIKAEMLYKNNPKLLTQLHYCESTGIPLVVIIGEQELKEGVIKIRSVASREEVAIKRENFVAEIQKRLSES” the “soluble on expression in E. coli” value was “soluble”.
In the case of “SDNLSSEEIQQRAHQITDESLESTRRILGLAIESQDAGIKTITMLDEQKEQLNRIEEGLDQINKDMRETEKTLTELNKCCGLCVCPCNRTKNFESGKAYKTTWGDGGENSPCNVVSKQPGPVTNGQLQQPTTGAASGGYIKRITNDAREDEMEENLTQVGSILGNLKDMALNIGNEIDAQNPQIKRITDKADTNRDRIDIANARAKKLIDS”, the “soluble on expression in E. coli” value is reported as “soluble”.
In the case of “GMFVWHEYENAAEAAQSLADAVADALQGALDEKGGAVLAVSGGRSPIAFFNALSQKDLDWKNVGITLADERIVPTNHADSNTGLVREYLLKNKAAAAVWIPMVEDGKTETELHPDAVVDYALKHYKQPDVLILGMGNDGHTASIFPKAPQFQTAIDGSAGVALVHTTPVTAPHERISMTLDAIAHTGHVFLAIQGEEKKAVFDQAAQGENREYPISLVLNHQGVNCHVFYAE”, the “soluble on expression in E. coli” value is reported as “soluble”.
